Source: PMC4423210, “Ubiquitination of the Dishevelled DIX domain blocks its head-to-tail polymerization” (Nature Communications, 2015)

Tests used:
[1] = biological target: the molecule itself; experiment: crystal structure; hDvl2 DIX-Y27D, 40% PEG400, 0.1 M Tris pH 8.5, 0.2 M LiSO4, 19 °C; helical filament in the crystal
[2] = biological target: the molecule itself; experiment: SEC-MALS; loading concentration 10 μM (reduced ∼10x during SEC); Superdex-75 HR10/300, 20 mM Tris pH 7.4, 200 mM NaCl, 0.01% NaN3; self-association, apparent molecularity
[3] = biological target: the molecule itself; experiment: SEC-MALS; loading concentration 50 μM (reduced ∼10x during SEC); Superdex-75 HR10/300, 20 mM Tris pH 7.4, 200 mM NaCl, 0.01% NaN3; self-association, apparent molecularity
[4] = biological target: the molecule itself; experiment: SEC-MALS; highest loading concentration (235 μM DIX, ∼160 μM DIX54-Ub or DIX58-Ub; reduced ∼10x during SEC); Superdex-75 HR10/300, 20 mM Tris pH 7.4, 200 mM NaCl, 0.01% NaN3; self-association, apparent molecularity

B1: hDvl2 DIX domain bearing the polymerization-deficient mutation M4 (Y27D) (domain or fragment, human)
chain: GETKVIYHLDEEETPDLVKIPVPAERITLGDFKSVLQRPAGAKYFFKSMDQDFGVVKEEISDDNARLPCFNGRVVSWLVSSDNPQPEMAPPVHEPR
notes: DIX domain of human Dishevelled-2 (hDvl2) with Y27D; Crystallised at 50 mg/ml; forms a helical head-to-tail filament in the crystal; also called hDvl2 DIX-Y27D; source: E. coli BL21-CodonPlus(DE3)-RIL, purified (Ni-NTA, TEV, gel filtration, anion exchange); not shown: 6xHis, N-terminal, cleaved
binding result [1]: binds

B2: DIX domain of human Dvl2 (hDvl2), unmodified (domain or fragment, UniProt O14641 11-93, looked up)
chain: VGETKVIYHLDEEETPYLVKIPVPAERITLGDFKSVLQRPAGAKYFFKSMDQDFGVVKEEISDDNARLPCFNGRVVSWLVSSD
notes: DIX domain of human Dishevelled-2 (hDvl2); Codon-optimised synthetic gene in pCDF-PylT; PDB 4WIP holds the Y27D mutant of the hDvl2 DIX domain; also called unmodified DIX; hDvl2 DIX domain; not shown: His6, N-terminal, cleaved
stoichiometry N [2]: 2 | stoichiometry N [3]: 3 | stoichiometry N [4]: > 84 monomers
